Experimental data published in the supplement of paper PMC10567573.

B1: PRPH (parent)
chain: RTFGPPPSLSPGAFSYSSSSRFSS
B2: ALDH8A1 (parent)
chain: WSSRSPQERSRVLNQVADLLEQSL

Variants of: B1
Test: protein stability index of a GFP-peptide fusion (GPS, HEK-293T) (PSI 1-6); higher = more stable
Details: c terminus: a fixed tail appended
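Note: lentivirally expressed fusions sorted by FACS into six bins by GFP to DsRed ratio, PSI derived from sequencing read proportions per bin multiplied by bin number.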

Protein stability index, by site and new letter:
S19: K 3.7 | I 2.45 | L 2.93 | Y 2.38 | T 3.23 | V 3.63 | N 3.46 | F 2.38 | R 3.5 | E 3.55 | A 3.08 | Q 2.66 | C 2.66 | H 2.81 | P 3.12 | G 3.46 | W 2.19 | M 2.26
S20: M 3.05 | W 2.09 | P 3.45 | F 2.35 | V 2.86 | T 2.94 | Y 2.74 | R 3.41 | D 3.23 | C 2.33 | K 3.81 | N 3.31 | G 2.99 | E 2.76 | Q 3.57 | I 2.43 | H 2.96 | A 3.71 | L 2.48
S24: E 3.38 | K 3.89 | M 2.55 | Q 3.31 | D 3.19 | T 3.23 | W 2.82 | Y 2.46 | L 2.27 | I 3.01 | R 3.85 | N 3.44 | F 1.96 | C 2.83 | V 2.3 | H 3.55
S23: R 3.52 | M 2.88 | K 3.48 | V 2.85 | L 2.93 | P 3.59 | E 2.79 | Q 3.47 | D 2.9 | A 3.17 | H 3.02 | G 2.6 | Y 2.66 | F 3.09 | N 3.36 | I 2.52 | T 3.23 | C 3.02
S18: Y 2.98 | V 3.24 | T 3.25 | W 2.77
F22: A 3.4 | D 3.94 | W 2.83 | E 4.03 | S 4.18 | M 3.73 | G 4.16 | I 3.81 | Q 3.78 | K 4.21 | N 3.44 | T 4.17 | Y 3.22 | H 3.55 | L 3.72 | V 3.8 | P 3.27 | C 3.82
R21: C 3.19 | Y 2.08 | P 3.25 | V 3.1 | S 3.02 | H 3.48 | Q 3.23 | N 3.03 | T 3.18 | K 3.5 | A 2.46 | M 2.8 | F 2.25 | I 2.44 | L 2.56 | D 3.3 | W 1.75 | E 3.22 | G 2.85

Variants of: B2
Test: as above
Details: c terminus: a fixed tail appended

Protein stability index, by site and new letter:
S3: G 1.82 | F 1.88 | A 1.98 | E 3.5 | H 2.52 | Q 2.52 | D 2.77 | V 2.78 | Y 2.25 | T 2.64 | K 2.53 | M 2.27 | N 2.35 | I 2.2 | P 2.54 | C 2.26 | L 1.98 | W 1.8 | R 2.28
E8: W 2.36 | Y 2.71 | G 2.17 | D 2.87 | L 2.1 | C 1.6 | F 2.01 | M 2.19 | R 2.88 | S 2.16 | P 2.51 | I 2.68 | T 2.46 | H 2.71 | N 2.23 | A 2.31 | V 2.23 | K 2.04 | Q 2.57
R9: W 2.22 | V 2.37 | M 2.16 | G 2.96 | I 2.44 | H 2.77 | Y 2.21 | S 2.87 | P 3.37 | A 2.59 | E 3.38 | L 2.48 | T 2.23 | C 1.39 | K 2.83 | F 2.56 | D 3.25 | Q 2.24 | N 2.86
R4: V 2.02 | I 2.64 | T 2.62 | Y 2.09 | N 2.61 | D 2.79 | E 2.97 | Q 3.04 | A 2.18 | L 2.03 | H 2.71 | C 1.68 | G 2.52 | P 2.64 | F 1.82 | M 2.22 | K 2.49 | S 2.44 | W 2.68
S2: Y 2.65 | M 2.51 | H 2.56 | A 1.99 | I 1.78 | W 1.92 | P 2.92 | K 2.48 | C 1.87 | N 2.78 | T 2.46 | L 1.8 | F 2.81 | Q 2.17 | E 2.9 | V 2.76 | G 2.5 | D 2.8 | R 2.81
W1: M 3.06 | H 3.56 | N 3.61 | F 2.67 | L 2.91 | Q 3.28 | C 2.78 | R 3.52 | A 3.21 | K 3.18 | G 3.44 | S 3.69 | E 3.54 | I 2.69 | Y 2.68 | P 3.02 | D 3.69 | V 3.11 | T 3.39
Q7: E 2.76 | A 2.38 | K 2.61 | P 2.9 | N 2.81 | V 2.53 | Y 1.79 | H 2.31 | M 2.23 | L 1.91 | R 2.62 | G 2.7 | F 1.77 | T 2.15 | C 2.24 | D 2.96 | W 2.37 | I 2.42 | S 2.21
P6: M 1.99 | R 2.31 | S 2.8 | D 3.19 | L 2.17 | C 2.19 | Y 1.98 | F 1.84 | W 2.9 | N 2.6 | G 2.85 | H 2.73 | E 3.07 | V 2.39 | K 2.42 | Q 2.85 | I 2.44 | T 3.1 | A 2.13
S10: H 2.58 | A 2.41 | D 3.14 | K 1.99 | M 2.45 | R 2.95 | V 2.05 | L 2.25 | P 2.49 | E 3.11 | F 1.24 | T 1.81 | G 3.8 | N 2.29 | Y 2.37 | W 2.82 | C 2.36 | Q 2.32
V12: D 3.85 | Q 3.45 | I 1.98 | H 3.05 | C 2.35 | F 2.12 | M 2.31 | G 3.48 | N 3.99 | P 4.23 | K 3.07 | A 3.11 | E 3.88 | L 2.06
R11: A 3.4 | W 1.86 | I 2.21 | Q 2.38 | P 2.58 | D 3.37 | G 2.91 | S 2.74 | C 2.18 | K 1.99 | E 3.27 | Y 2.22 | T 2.48 | F 2.43 | V 2.68 | N 2.48 | H 1.89 | L 2.15 | M 1.55
S5: Q 3.01 | C 2.56 | A 2.62 | T 2.57 | R 2.87 | D 2.85 | K 2.52 | F 1.99 | E 2.88 | Y 1.6 | L 2.74 | P 2.57 | I 2.4 | G 2.05 | N 2.43 | V 2.81 | H 2.14 | W 1.59 | M 2.54
